Where no end group is shown, it is not given here.

One test has as its target T1, sorting nexin 5 (Homo sapiens (Human), UniProt Q9Y5X3 1-404, limits assumed).
T1 construct: also called SNX5; Myc-SNX5
T1 sequence: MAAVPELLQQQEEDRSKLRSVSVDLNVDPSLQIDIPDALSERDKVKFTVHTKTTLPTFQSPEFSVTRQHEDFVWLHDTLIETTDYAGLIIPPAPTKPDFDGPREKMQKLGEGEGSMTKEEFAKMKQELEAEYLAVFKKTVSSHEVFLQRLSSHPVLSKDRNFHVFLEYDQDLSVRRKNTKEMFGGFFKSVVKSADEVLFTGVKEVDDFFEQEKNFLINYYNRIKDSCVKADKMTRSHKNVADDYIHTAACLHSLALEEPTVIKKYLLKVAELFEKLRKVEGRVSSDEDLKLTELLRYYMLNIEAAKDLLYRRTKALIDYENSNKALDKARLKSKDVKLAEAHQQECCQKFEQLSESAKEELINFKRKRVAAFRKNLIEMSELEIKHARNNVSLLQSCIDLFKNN
Briefly: yeast two-hybrid screen.

In a further test the target is T2, LMO4 (Homo sapiens (Human), UniProt P61968 1-165).
T2 sequence: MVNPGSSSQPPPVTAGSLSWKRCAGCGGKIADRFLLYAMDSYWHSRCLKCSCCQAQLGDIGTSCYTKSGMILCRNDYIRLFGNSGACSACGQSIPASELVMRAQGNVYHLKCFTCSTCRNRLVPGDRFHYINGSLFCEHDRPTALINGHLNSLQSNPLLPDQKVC
Briefly: yeast two-hybrid screen.

B1: C-terminus of the PIPKIγ 707 splice variant (other)
chain: FTDGRYWIYSPRHRRLRAVTLSASGTVSDRSRPPWGEGAVPLGQQGAAGPRPEAQCLTSVVFQKGFG
notes: Yeast two-hybrid bait
Turning to B1, the binding result in the test with sorting nexin 5 is on record as “binds”.

B2: C-terminus of the PIPKIγ 700 variant (other)
chain: WRLWGPHAPTWPWRREGRAACLCPYPPHVVTPFPGTGLCASWSPDGTGGLGAMSCCVSVS
modifications: not fully specified; cysteine pairing not given here
notes: Yeast two-hybrid bait
With B2, the binding result with LMO4 was “binds”.

The values above are taken from patent publication US20090208949A1 (WISCONSIN ALUMNI RESEARCH FOUNDATION, published 2009).
